Paper PMC6505963

Biological target: GST-BLM RQC loopΔ10 (human) (UniProt P54132)
Assay: EMSA
Settings: 5 uM protein, FP: 10 mM Tris-HCl pH 7.5, 25 mM NaCl, 1 mM DTT, 100 pM DNA, 25 C, EMSA: 10 mM Tris-HCl pH 8.0, 2 mM DTT, 1 mM EDTA, 20% glycerol, 0.2 uM DNA, 4 C, 30 min

GST-BLM RQC loopΔ10 (human), sequence (P54132 1068-1209, stated change not applied): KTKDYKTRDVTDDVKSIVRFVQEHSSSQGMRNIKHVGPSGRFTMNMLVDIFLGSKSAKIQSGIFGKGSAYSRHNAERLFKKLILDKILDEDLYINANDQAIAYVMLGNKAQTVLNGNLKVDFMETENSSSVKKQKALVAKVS

“CTAGAACAGCATGTCCTAGCAAGCCAGAATTC / GAATTCTGGCTTGCTAGGACATCTTTGCCCAC / GTGGGCAAAGATGTCCTAGCAATGTAATCGTC / GACGATTACATTGCTAGGACATGCTGTTCTAG [Holliday junction (HJ)]” gave a binding signal (% loss of binding vs wild type) of 50.
